The test system of this test is Ad5.eGFP. The test is described as follows: Ad5.eGFP infection, eGFP-positive cells by flow cytometry. Type of test: cell-based, human adenovirus. The note with it: 15 µM defensin, percent eGFP positive cells vs. no defensin, at least three independent experiments. The text has this: To gain further insight into the defensin-HAdV interaction, we assessed the requirement for two conserved structural elements on the anti-AdV activity of HD5. All defensins have three disulfide bonds (Figure 3A). […] The antibacterial properties of defensins, which are dependent upon protein-lipid interactions, are not uniformly conformation dependent [27]–[29]. […] In contrast, defensin-related chemokine activity, which relies on protein-protein interactions, is dependent on defensin conformation. We hypothesized that the defensin-capsid interaction for sensitive serotypes would likely be dependent upon defensin conformation, as this would be more typical for protein-protein interactions. […]
Figure 3 HD5 antiviral activity is structure dependent. […] C) Binding of Alexa Fluor 488-labeled HAdV-5 to cells was assessed after incubation with or without 20 µM HD5 or HD5-Abu and in competition with 100 nM 5FK or 16 FK. Data are the mean fold increase in geometric mean fluorescence compared to cells alone and are of at least 10,000 cells from each of three independent experiments ± SD.
To test the activity of HD5 derivates, Ad5.eGFP was incubated with 15 µM of HD5, HD5-Abu, or HD5-E14Q. Infectivity was assessed by enumerating eGFP-positive cells by flow cytometry as described.
A general note: A flow cytometer gives signals particle by particle.

B1: HD5-E14Q: HD5 containing a substitution of glutamine for glutamic acid 14, to disrupt the conserved salt bridge (peptide, UniProt Q01523 20-94, looked up, variant E14Q)
Defensin alpha 5: ESLQERADEATTQKQSGEDNQDLAISFAGNGLSALRTSGSQARATCYCRTGRCATRQSLSGVCEISGRLYRLCCR
modifications: Defensin-5
notes: HD5 containing a substitution of glutamine for glutamic acid 14, to disrupt the conserved salt bridge
For B1, the “antiviral activity against Ad5.eGFP” value is reported as “no effect on antiviral activity”.

(Values after PMC2891831, “Insight into the Mechanisms of Adenovirus Capsid Disassembly from Studies of Defensin Neutralization” (PLoS Pathogens, 2010).)
